For test [1], the system named is primary cortical neurons. Description: gene expression by qPCR in cultured primary cortical neurons. It is filed as cell-based, mouse. As to conditions: for Fndc5 gene expression: 1 μM; for Fndc5 gene expression / Fndc5 mRNA expression: DIV 7, vs vehicle; for Fndc5 mRNA expression: 100 ng/ml. On the procedure:
(§1) Primary cortical and hippocampal neurons were isolated as described in great detail previously in Bartlett and Banker (1984) J. Neurosci. 4, 1944-1953. Briefly, cortices and hippocampi were dissected from E16-E18 embryos, dissociated with trypsin (Sigma) and DNAse (Roche), and plated on poly-L-lysine-coated (Sigma) plates. Dissociated neurons were cultured in Neurobasal Media supplemented with B27, GlutaMAX™ (Life Technologies), and Penicillin-Streptomycin (Cellgro).
Cells or tissues were lysed and homogenized in TRIzol (Invitrogen). Total RNA was subsequently isolated using the RNeasy Mini or Micro Kit (Qiagen). First-strand cDNA was generated using the High Capacity cDNA Reverse Transcription Kit (Life Technologies), and qPCR was performed using SYBR Green Master Mix in a 7900HT Real-Time PCR system (Applied Biosystems). mRNA quantities were normalized to Rsp18 after determination by the comparative Ct method (Schmittgen and Livak (2008) Nat. Protocols 3, 1101-1108).
Primary cortical neurons were transduced at the indicated time-points and were harvested 48 hrs later for RNA isolation. For knockdown studies, primary cortical neurons were transduced with viral supernatants from HEK293T cells transfected with pLKO.1 vector (TRC) containing the specified shRNAs at the indicated time-points.
On the technique in general: In qPCR the cycle at which signal appears reflects the starting amount.

In a further test the test system is SH-SSY5Y neurons. Put plainly: Fndc5 gene expression by qPCR in SH-SSY5Y neurons. The settings on record: treatment with the neurotoxin. It is filed as cell-based, human. As to the method: The cells were differentiated with retinoic acid. Gene expression was assessed with qPCR.
The test system of a further test is substantia nigra. As to conditions: 4 mg/kg/d, harvested 2 days later, microarray, vs untreated mice; cited from earlier work.
Test [2] has as its system primary hippocampal neurons. Description: gene expression by qPCR in cultured primary hippocampal neurons. It is filed as cell-based, mouse. As to the method:
At the indicated days in vitro (DIV) mRNA was prepared and gene expression was assessed by qPCR. Data are shown as mRNA levels relative to Rsp18 expression, expressed as mean±SEM. *P<0.05 compared to DIV 1 control group. […] Forty-eight hours later mRNA was prepared and gene expression was assessed by qPCR. Data are shown as mRNA levels relative to Rsp18 expression, expressed as mean±SEM. *P<0.05 compared to corresponding GFP expressing control group. […] Four days later mRNA was prepared and gene expression was assessed by qPCR. Data are shown as mRNA levels relative to Rsp18 expression, expressed as mean±SEM. *P<0.05 compared to corresponding shLuc expressing control group. […] Data are shown as mRNA levels relative to Rsp18 expression, expressed as mean±SEM. *P<0.05 compared to vehicle only group. […] Four days later mRNA was prepared and gene expression was assessed by qPCR. Data are shown as mRNA levels relative to Rsp18 expression, expressed as mean±SEM. *P<0.05 compared to corresponding shLuc expressing control group. […] Data are shown as mRNA levels relative to Rsp18 expression, expressed as mean±SEM. *P<0.05 compared to vehicle only group.
as §1
Cells or tissues were lysed and homogenized in TRIzol (Invitrogen). […] First-strand cDNA was generated using the High Capacity cDNA Reverse Transcription Kit (Life Technologies), and qPCR was performed using SYBR Green Master Mix in a 7900HT Real-Time PCR system (Applied Biosystems). mRNA quantities were normalized to Rsp18 after determination by the comparative Ct method (Schmittgen and Livak (2008) Nat. Protocols 3, 1101-1108).

The test system of test [3] is primary cortical neurons. Description: CellTiter-Glo Luminescent Cell Viability Assay of cultured neurons. As to conditions: treatment during in vitro culture for 7 days, relative to hFc. It is filed as cell-based, mouse. On the procedure:
Cell viability of cultured neurons was assessed using CellTiter-Glo® Luminescent Cell Viability Assay (Promega, Madison, Wis.) according to the manufacturer's instructions. Luminescence of cell lysates was measured using the FLUOstar Omega plate reader (BMG LABTECH, Offenburg, Germany).
Background: Cellular ATP, detected with luciferase, serves as a proxy for viable cell number.

Test [4] concerns primary cortical neurons. Put plainly: binding of irisinFc to PFA-fixed cultured neurons, detected by secondary anti-human Fc fluorescent antibody. On the set-up: species or system mouse. As to conditions: PFA-fixed cultures, vs humanFc. On the procedure: PFA-fixed cultured primary cortical neurons were incubated with either irisin-Fc or humanFc as control and binding of irisinFc was detected by a secondary anti-human Fc fluorescent antibody. IrisinFc clearly binds to neurons in culture, especially given that the observed pattern of the binding and the fact that the cultures are highly enriched in neurons (>90%).

The test system of test [5] is human embryonic stem cells differentiated into motor neurons (eMN). Put plainly: human embryonic stem cells differentiated into motor neurons (eMN), gene expression by qPCR. It is filed as cell-based. As to the method:
Gene expression was assessed with qPCR.
Growth of human embryonic stem cells, differentiation of human embryonic stem cells into motor neurons, and glial co-culture were performed as described in DiGiorgio et al. (2008) Cell Stem Cell 3:637-648.

Another test concerns Wild type C56/B16 mice. Put plainly: peripheral injections of irisin-Fc, Bdnf gene expression by qPCR. It counts as in vivo, mouse. As to conditions: 5 mg/kg i.p., RNA 10d later, vs humanFc. As to the method:
Wild type C56/B16 mice were injected with either irisinFc or humanFc (5 mg/kg) i.p. Total RNA for qPCR was harvested 10d later. Results are shown as mean+SEM, n=6, *P<0.05.

In test [6] the test system is primary cortical neurons. Put plainly: irisin stimulation of silenced primary cortical neurons, mRNA levels of genes of interest. The settings on record: 1 ug/mL (Enzo) at DIV7 after silencing with 1 uM TTX and 100 uM APV; time course, p<0.05 from baseline. It is filed as cell-based, mouse. As to the method: Primary cortical neurons were silenced at DIV6 with 1 uM TTX and 100 uM APV overnight. The neurons were then stimulated at DIV7 using irisin (1 ug/mL; Enzo; Product No. ADI-908-307-0010). […] In a separate analysis, primary cortical neurons were silenced at DIV6 with 1 uM TTX and 10 uM MK801 overnight. […] In still a separate analysis, primary cortical neurons were silenced at DIV6 with 1 uM TTX and 100 uM APS overnight. The neurons were then stimulated at […] using irisin (1 ug/mL; Enzo; Product No. ADI-908-307-0010). […] In yet another separate analysis, primary cortical neurons were silenced at DIV7 with 1 uM TTX and 100 uM APS overnight. The neurons were then stimulated at DIV8 using 1 ug/mL of irisin from one of two vendors (i.e., either from Enzo, Product No. ADI-908-307-0010, or from Phoenix, Product No. 067-29A).

Setting [7] is: 5× concentrated conditioned media from CHO cell lines, RNA next day, vs hFc.
Setting [8] is: 1 ug/ml at DIV 5 and 6, vs vehicle.

As to `CCN(CC)c1ccc(/C=N/NC(=O)c2ccc(O)cc2)cc1` [DY131, reference compound], the Fndc5 gene expression entry in the test with primary cortical neurons [1] (overnight) is “had no effect on Fndc5 gene expression”.
In the case of `COc1cc(/C=C(\C#N)C(=O)Nc2nnc(C(F)(F)F)s2)ccc1OCc1ccc(C(F)(F)F)cc1C(F)(F)F` [XCT 790, reference compound], the Fndc5 gene expression entry in the test on primary cortical neurons [1] (overnight) was “significantly reduced Fndc5 gene expression”.
Turning to “IGF-1: recombinant mouse insulin-like growth factor 1, R&D Systems”, the “Fndc5 mRNA expression” value in the test on primary cortical neurons [1] (overnight) is given as “only BDNF stimulation significantly reduced”.
Turning to `Cc1cc(SCc2sc(-c3ccc(C(F)(F)F)c(F)c3)nc2C)ccc1OCC(=O)O` [GW0742, reference compound], the Fndc5 gene expression result in the test with primary cortical neurons [1] (overnight) was “no effect on Fndc5 gene expression”.
Take `C=C(C)[C@H]1Cc2c(ccc3c2O[C@@H]2COc4cc(OC)c(OC)cc4[C@@H]2C3=O)O1` [rotenone]: the Fndc5 gene expression result in the test with SH-SSY5Y neurons is on record as “reduces Fndc5 gene expression”.
Take `COC(=O)[C@@]1(O)C[C@H]2O[C@]1(C)n1c3ccccc3c3c4c(c5c6ccccc6n2c5c31)C(=O)NC4` [K252a, reference compound]: the “reduction of Fndc5 mRNA expression by BDNF” value in the test with primary cortical neurons [1] (pre-incubation with 50 nM, then BDNF 100 ng/ml overnight) is reported as “This effect was abolished”.
Take `CN1CC=C(c2ccccc2)CC1` [MPTP, 1-methyl-4-phenyl-1,2,3,6-tetrahydropyridine]: in the test on substantia nigra, the “Fndc5 expression in substantia nigra” value is reported as “significantly lower Fndc5 expression”.
With `CC(C)(Sc1ccc(CCN(CCCCC2CCCCC2)C(=O)NC2CCCCC2)cc1)C(=O)O` [GW7647, reference compound], the Fndc5 gene expression result in the test on primary cortical neurons [1] (overnight) is on record as “no effect on Fndc5 gene expression”.

B1: BDNF: recombinant human brain-derived neurotrophic factor, PeproTech (protein)
chain: HSDPARRGELSVCDSISEWVTAADKKTAVDMSGGTVTVLEKVPVSKGQLKQYFYETKCNPMGYTKEGCRGIDKRHWNSQCRTTQSYVRALTMDSKKRIGWRFIRIDTSCVCTLTIKRGR
Take B1: in the test with primary cortical neurons [1] (overnight), the “Fndc5 mRNA expression” value is on record as “only BDNF stimulation significantly reduced Fndc5 mRNA expression”. Further, in the test on primary cortical neurons [1] (overnight, 0.1-100 ng/ml tested, dose-response observed), the “lowest concentration that significantly reduced Fndc5 gene expression” value was determined as 1 ng/mL. The Fndc5 gene expression entry in [2] (100 ng/ml, overnight, DIV 7, vs vehicle) was “reduced Fndc5 gene expression”.

B2: CNTF: recombinant human ciliary neurotrophic factor, Sigma (protein, UniProt P26441 1-200, looked up)
Ciliary neurotrophic factor: MAFTEHSPLTPHRRDLCSRSIWLARKIRSDLTALTESYVKHQGLNKNINLDSADGMPVASTDQWSELTEAERLQENLQAYRTFHVLLARLLEDQQVHFTPTEGDFHQAIHTLLLQVAAFAYQIEELMILLEYKIPRNEADGMPINVGDGGLFEKKLWGLKVLQELSQWTVRSIHDLRFISSHQTGIPARGSHYIANNKKM
Regarding B2, in the test with primary cortical neurons [1] (overnight), the “Fndc5 mRNA expression” value is on record as “only BDNF stimulation significantly reduced”.

B3: irisinFc: Fc fusion of irisin (murine Fndc5 residues 29-140); amino acid sequence given in b228 (protein)
chain: DSPSAPVNVTVRHLKANSAVVSWDVLEDEVVIGFAISQQKKDVRMLRFIQEVNTTTRSCALWDLEEDTEYIVHVQAISIQGQSPASEPVLFKTPREAEKMASKNKDEVTMKEGGGGAGGGGVECPPCPAPPVAGPSVFLFPPKPKDTLMISRTPEVTCVVVDVSHEDPEVQFNWYVDGVEVHNAKTKPREEQFNSTFRVVSVLTVVHQDWLNGKEYKCKVSNKGLPAPIEKTISKTKGQPREPQVYTLPPSREEMTKNQVSLTCLVKGFYPSDIAVEWESNGQPENNYKTTPPMLDSDGSFFLYSKLTVDKSRWQQGNVFSCSVMHEALHNHYTQKSLSLSPGK
modifications: /note=“Description of Artificial Sequence IrisinFc polypeptide”
Consider B3, for which the cell viability result in the test on primary cortical neurons [3] is on record as “significantly increased cell viability”. Moreover, in the test with primary cortical neurons [1] (setting [7]), the Bdnf expression entry is “increased expression of Fndc5 and Bdnf”; the Fndc5 expression entry is “increased expression of Fndc5 and Bdnf”. Besides, the binding to neurons result in the test with primary cortical neurons [4] is “neurons bind irisinFc”. In test [5], the eMN synapse formation entry is “increases eMN synapse formation” and the “motor neuron differentiation of eMN” value is “promotes motor neuron differentiation”. Also, in the test with Wild type C56/B16 mice, the “Bdnf expression in the cerebellum” value is “significant increase in Bdnf expression” and the “Bdnf expression in the sciatic nerve” value is on record as “significant increase in Bdnf expression”.

B4: recombinant irisin: commercially available recombinant irisin, secreted form of FNDC5 (Phoenix Pharmaceuticals; Enzo in b292) (protein, UniProt Q8NAU1 1-191, looked up)
Irisin: MQAARGGAGRPERPGRPGRGPERERERPPGAGAASPCAAPGLPAGGATIHPGSPSAWPPRARAALRLWLGCVCFALVQADSPSAPVNVTVRHLKANSAVVSWDVLEDEVVIGFAISQQKKDVRMLRFIQEVNTTTRSCALWDLEEDTEYIVHVQAISIQGQSPASEPVLFKTPREAEKMASKNKDEVTMKE
modifications: Irisin
As for B4, in test [2] (setting [8]), the Bdnf gene expression result is on record as “did not reach statistical significance”; the “gene program (Arc, cFos, Npas4, and Zif268)” value was “induced a similar gene program”. For the same molecule, the “changes in mRNA levels of genes of interest” value with primary cortical neurons [6] is on record as “many of the analyzed genes have statistically significant changes”.

B5: GDNF: recombinant human glial cell-derived neurotrophic factor, Sigma (protein, UniProt P39905 78-211, looked up)
Glial cell line-derived …: SPDKQMAVLPRRERNRQAAAANPENSRGKGRRGQRGKNRGCVLTAIHLNVTDLGLGYETKEELIFRYCSGSCDAAETTYDKILKNLSRNRRLVSDKVGQACCRPIAFDDDLSFLDDNLVYHILRKHSAKRCGCI
With B5, the “Fndc5 mRNA expression” value with primary cortical neurons [1] (overnight) was “only BDNF stimulation significantly reduced”.

B6: NGF: recombinant mouse nerve growth factor, EMD Millipore (protein, UniProt P01139 122-241, looked up)
Beta-nerve growth factor: SSTHPVFHMGEFSVCDSVSVWVGDKTTATDIKGKEVTVLAEVNINNSVFRQYFFETKCRASNPVESGCRGIDSKHWNSYCTTTHTFVKALTTDEKQAAWRFIRIDTACVCVLSRKATRRG
For B6, the “Fndc5 mRNA expression” value with primary cortical neurons [1] (overnight) was “only BDNF stimulation significantly reduced”.
